Measured values as given in the DeepSol protein solubility set.

Experiment: soluble on expression in E. coli; label from the status in PepcDB or PDB records

With “MGSDKIHHHHHHAVVSCDSILGEEEVDCSVEYRVKFKYDYNMKYADAFSREVGTVTLYAFDDNGKLVYQKTEEGDVLGEEGYTMKVDLEPGDYHLVTWAGLNDEASFSVPLVTAGESSLDELQCRMDRLYSRAADGTAVVNSKLSALWHGEVTKQSFSRAASSQVVTVPLVKNTNTIRIILQQMDGVTVEVDKFEFTITDDNGLMNYDNKLLEDETLTYYPYYRMQGGTDMGIRADGDAEDSNISVAIAQITVGRLVVENNPRLTITNKETGEPVLSIPLVKYLLLTEAEGHEMTNQEYLDRQDEYNMTFFLDESMKWINTSIIINDWVVRFNELDM” the “soluble on expression in E. coli” value was “not soluble”.
In the case of “EDKYTDKYDNINLDEILANKRLLVAYVNCVMERGKCSPEGKELKEHLQDAIENGCKKCTENQEKGAYRVIEHLIKNEIEIWRELTAKYDPTGNWRKKYEDRAKAAGIVIPEE”, the “soluble on expression in E. coli” value is reported as “soluble”.
For “MGSDKIHHHHHHLRTNTPTFINIRNSYKIKTIMHFHLSGNAASDLKIVRFEDFSGSADAFRQHWYVHRVTMQRRKHVIVMEESTRYALLFCRVTQPFFKNFPEFFADTLWRHIVSLCAVPTARFGSIQAMTTDMCSENIYHKGLNRSVQAHIRDSFLTLECYLLHEPPINLARQEDVFQMNIRINETPRTRYGEKNYIWSLREFQRLWCEHLGVAAVRG”, the “soluble on expression in E. coli” value was “not soluble”.
With “MSDALTLTAAKKNARNRIRAARLARSTADLHADNAAILNQLTALIRTINATRAAAYMPEVTEPGGVDFADNLTGILSELWIPKSLPNRQLVWGHYSGGDSVERGTFGILEPTTPSRSSDILHDVDLIIVPALGITPSGRRLGQGAGYYDRALAGVATPTVAILFDSEVNTTIPFEPHDATCDWIITPEGTKQVT” the “soluble on expression in E. coli” value was “not soluble”.
In the case of “MGSDKIHHHHHHMYLKVYKEDVIEGLQKAANIIPAKTGAAYLRSIWLNAADGTLSVMATDSNIEFRGTYTAEVTEPGLAGVQGRAFVDLLRKLPAGEIVLQLDAEANVLRIEQGRRKYKLPVNDPVWFQNFSDFPADGAVVWSGDFLQELIDRIAFCISDEDAVEAIACLFMKPVAEGRIEACGLNGHQFAMLRFLHDDLHAKLPAEGVLVQKKYLGELKKWLGADEIELNISEKRMHLRTGDGRETFSLPLSSYQYPDYMNFIAKLQGEGVSNLEVDRKEGMDALDRLQIFNSDNNRCTYFDLSGGEVVLTAQGQDVGSASESLEASYDGDIRRIAFPTRNLIDIMNHYQSGRLRLTLTGAEGPCGISGEEDPEYQVIVMPMKIVEETYYSEEEV”, the “soluble on expression in E. coli” value is reported as “not soluble”.
In the case of “MRSFIIFSTLLVILVQCGYPVAENSYPTTPSYPTPPPSYPTPKKYPVAPTYPSTPSYSAPPAQSAYSSSDNQEDTESESVTGAASTSEYRKRAKARTAHNRQFQRRALQPIKRFQQKKQ”, the “soluble on expression in E. coli” value is reported as “not soluble”.
For “MSLNRFTKTSQGRSWNTGNGSPDAICFAVDKPGIVVVGFAVYGGGGIHEYELEVLVDDSEHAGDSTHSHRWTSLELVKGTYTTDDSPSDIAEIRLDKVVPLKENVKYAVRLRNYGSRTANGDGGMTTVQCPDGVTFTFSTCSLSSNGTNQTRGQIPQILYYRSEFDGDLQSQLLSKANEEDKNCSRALSVVSTVVRAAKDLLHRALAVDADEGHHHHHH”, the “soluble on expression in E. coli” value was “not soluble”.
For “GSTAMATTMEQEICAHSMTFEECPKCSALQYRNGFYLLKYDEEWYPEELLTDGEDDVFDPDLDMEVVFETQ”, the “soluble on expression in E. coli” value was “soluble”.
For “AHHHHHHGSAELWEIVSFLDEYLKISEYPDKSSNGLQVEGKEEVNTIAFAVDACLDTIVKARAFNADMLIVHHGLIWGGVKYVKGLFAKRVKELLKSNMNLYAAHLPLDAHPEVGNNAQLLKLLGLEPKEKFGEYHGVMIGYIGEFEEEKPLPLIAQMLAEKLPVDYVKSYEFGVQEIKRVGVVSGGGGFAVEEASEKGVDLFITGEFTHEDYRAAEDLRLSVIAAGHYATETLGVKALMPILREKFGVKTIFIDSPTGL”, the “soluble on expression in E. coli” value was “not soluble”.
In the case of “MKIRQEKPAEYQAVERLTYQAFKELNLTENWRPTEHFIVHLLRESADFIPELSLVSETDQGKLTGHIMSSKAKLRLPDHTEKAVLTVGPLSVHPEAQNTGVGSALIKHSVQKAKELGIGGLIILGHPTYYTKFGFVPATTFQITLPEKETSEALLALELLPGYFGTSGGEWHFSTCFAYPETHPAELEAFEAELGINE”, the “soluble on expression in E. coli” value is reported as “not soluble”.
With “AHHHHHHGSKIKVGINGYGTIGKRVAYAVTKQDDMELIGVTKTKPDFEAYRAKELGIPVYAASEEFLPRFEKAGFEVEGTLNDLLEKVDIIVDATPGGMGEKNKQLYEKAGVKAIFQGGEKAEVAQVSFVAQANYEAALGKDYVRVVSCNTTGLVRTLNAIKDYVDYVYAVMIRRAADPNDIKRGPINAIKPSVTIPSHHGPDVQTVIPINIETSAFVVPTTIMHVHSIMVELKKPLTREDVIDIFENTTRVLLFEKEKGFESTAQLIEFARDLHREWNNLYEIAVWKESINVKGNRLFYIQAVHQESDVIPENIDAIRAMFEIAEKWESIKKTNKSLGILK” the “soluble on expression in E. coli” value was “soluble”.
For “MSLTTSIPAPPAESIDQVLNLISKGSNGAAQQSKHPLRIVMGSVMISEIGALISGVLKSLNNNFTTQKVWEEDYLVRVMAHLGLFAHAVGSQVSANDLTQLLTLYVQRLSARGFTDLVPLYLSFIPDDSDAREYYSKFLSSITDPSERTKQLQLVRKLGIDSNGDEERMANVLRRTVERVMADTEAEYRPSGEVTVQDEDTDVTETDTKICQSVDWYFENNMYPDAVSASLTVIRRFLACGRLAALRHFVRGKDLKQLVKNYDVDLYTRSLAGLDDGAQVGDADKDEIIQYHLFVQGLELIQDWRKFLKDNQTNSLSAVFWKSKHLESLIEKVSSGIVGLIRDWFQELIATDGTKKEMYQQLRVLYVPYLVMELLDIYQQARMSNWLYVKKAFELVSLVADEDNNDLLTCFVNCGRLDELMVRSGNLAAVACERGIANIFSEGHHHHHH”, the “soluble on expression in E. coli” value was “soluble”.
In the case of “GMSSNLHGIAIGIERSQDDFYLAFKAVGKLTHEDYEQMTPLLESALAGIKTPEIVALIDITELDGLSLHAAWDDLKLGLKHGKEFKRVAIIGQGELQEWATRVANWFTPGEFKFFEDKRDALDWLC”, the “soluble on expression in E. coli” value is reported as “soluble”.
For “MSPVVSEASPERWDDETDVLVIGSGAGGLSAALFAAQAGLRVLICEKLAYVGGTTATSGGGIWVPGTKAGLAAGDTLEAARTYLKALLGDFYQEEVIDTYLATGGKVIDFLNENTEVKFDLSSWPDYRSSLPGGATRGRSLFPQPFDGKKLGRNFSLLHPPLHRLMVLGGLMLGPEEVHDFLRPFSSPRALMRVLRKLLRYGMDRIRYARGTDLRSGNALAARLLYSVDKLGCRILTQADLESLAIDHDRVIGATVVVGGVPKRIRASKAVLLATGGFAHNQEMLRRYGPATPHRFSLCNPACTGAGIQAALDAGASVDRELSSVGFWTPASASREKNGADTPVIYSYLDRGRPGVIAVNEQGERFVNEANSYHDIVTAIFANGGADGKPFYFITDREFVRRHGLGLIRPWPWNRSLRPWIRRGYITVASTLDKLGPKIGIDPGALAAAVQRHNQSARTGQDPDFHKGASAYNRMFGHNMIWPNPNLAPIETPPFVALRIHPATIGTAMGLKTSASGQALNAAGQPISGLYACGNDQASPFRGFYPGGGSTLGPAIVGAYLAVQSLSKQLEHHHHHH”, the “soluble on expression in E. coli” value was “not soluble”.
